According to patent publication US20110059889A1 (SYNTONIX PHARMACEUTICALS, published 2011):
Where two headings read alike, the source gives them in different places. Bridge positions count the residues as written; N and C are the ends. Square brackets hold non-standard residues; d marks the D form. Ends that are not written are not given here. Phe(4-amidino) = N=C(N)c1ccc(C[C@H](N)C(=O)O)cc1; Phe(4-NH2) = Nc1ccc(C[C@H](N)C(=O)O)cc1; His(Me) = mono-methylated histidine; NMeL = CN[C@@H](CC(C)C)C(=O)O; Pen = CC(C)(S)[C@H](N)C(=O)O; hCys = N[C@@H](CCS)C(=O)O; Sar = CNCC(=O)O

Legend:
[1] = target: T1, soluble human FcRn (shFcRn) (human, UniProt P55899 24-297; P61769 21-119); assay: SPR pH 6
T1 construct: Biotinylated for the ELISA, amine-coupled to a CM5 chip for SPR; also called biotinylated shFcRn
Protocol: (§1) The following steps were performed to cross-link soluble human or cynomolgus FcRn to the dextran surface of a CM5 sensor chip (Biacore AB, Uppsala, Sweden) by an amine coupling reaction involving 1-ethyl-(3-dimethylaminopropyl)-carbodiimide hydrochloride (EDC) (Biacore AB, Uppsala, Sweden) and N-hydroxysuccinimide (NHS) (Biacore AB, Uppsala, Sweden) as recommended by Biacore (BIAapplications Handbook, version AB, section 4.2, Biacore AB, Uppsala, Sweden). […] Residual sites on the FcRn flow cell were blocked with 1 M ethanolamine hydrochloride pH 8.5 (Biacore AB, Uppsala, Sweden). A control flow cell was blocked with ethanolamine for reference subtraction. For analysis of the monomeric peptides, FcRn was coated to a final density of 4000-5000 response units (RU). For analysis of the peptide dimers, FcRn was coated to a density of 2000-2500 RU. All SPR measurements were performed using a BIACORE 3000 Instrument (Biacore AB Uppsala, Sweden). For measurements done at either pH 6 or pH 7.4, experiments were performed in 50 mM phosphate, 100 mM sodium chloride, 0.01% surfactant P20 (Biacore AB, Uppsala, Sweden).
(§2) Ten, 2-fold dilutions of the peptide were injected over the FcRn-CM5 chip at a rate of 20 μl/min for 2 min. The peptide was dissociated from the chip for 2.5 minutes with buffer. Any remaining peptide was removed from the chip with a 30 second injection of HBS-P buffer (Biacore AB, Uppsala, Sweden) at a rate of 30 μl/min. Sensorgrams were generated and analyzed using BiaEval software version 3.1 (Biacore AB, Uppsala, Sweden). The equilibrium RU observed for each injection was plotted against concentration. The equilibrium KD values were derived by analysis of the plots using the steady state affinity model included in the BiaEval software.

[2] = target: T1, soluble human FcRn (shFcRn); assay: IgG competition ELISA
Protocol: (§3) The wells were coated with 100 μl/well of 1 μg/ml biotinylated-shFcRn in Buffer A. The plate was sealed and incubated at 37° C. for 2 hours. Afterwards, the plate was washed with 200 μl/well of Buffer B (Buffer B: 100 mM MES pH 6, 150 mM NaCl, 0.5% BSA IgG-free (Jackson ImmunoResearch, West Grove, Pa.), 0.05% Tween-20). […] To allow for mixing, the plate was rocked for 2 minutes, sealed and incubated at 37° C. for 2 hours. […] The plate was covered, incubated for 30 minutes at room temperature and washed 4 times with 200 μl/well of ice-cold buffer B. SureBlue TMB substrate solution (100 μl/well, KPL, Gaithersburg, Md.) was added and the plate was allowed to incubate at room temperature until color developed, which took 5 to 10 minutes. Once color developed, 100 μl/well of TMB stop solution (KPL, Gaithersburg, Md.) was added and the absorbance was measured at 450 nm. The data was plotted as absorbance vs. peptide concentration to derive the inhibitory concentration 50% (IC₅₀) values.

[3] = target: T1, soluble human FcRn (shFcRn); assay: IgG competition ELISA; remark: listed apart in the source
Protocol: as §3

[4] = target: T1, soluble human FcRn (shFcRn); assay: SPR pH 6; remark: listed apart in the source
Protocol: as §1, §2

[5] = target: T1, soluble human FcRn (shFcRn); assay: SPR pH 7.4
Protocol: as §1, §2

[6] = target: T1, soluble human FcRn (shFcRn); assay: IgG competition ELISA; remark: listed apart in the source
Protocol: as §3

[7] = target: T1, soluble human FcRn (shFcRn); assay: IgG competition ELISA; remark: listed apart in the source
Protocol: as §3

[8] = target: T1, soluble human FcRn (shFcRn); assay: SPR pH 6; remark: listed apart in the source
Protocol: as §1, §2

Kd [4]	Kd [5]	IC50 [6]	IC50 [7]	Kd [8]	Binder	further results
					QRF[Pen]TGHFGGLYP[Pen]NGP-NH2 (disulfide 4-14; N-terminus assumed; SMILES CC(C)C[C@@H]1NC(=O)CNC(=O)CNC(=O)[C@H](Cc2ccccc2)NC(=O)[C@H](Cc2c[nH]cn2)NC(=O)CNC(=O)[C@H]([C@@H](C)O)NC(=O)[C@@H](NC(=O)[C@H](Cc2ccccc2)NC(=O)[C@H](CCCNC(=N)N)NC(=O)[C@@H](N)CCC(N)=O)C(C)(C)SSC(C)(C)[C@@H](C(=O)N[C@@H](CC(N)=O)C(=O)NCC(=O)N2CCC[C@H]2C(N)=O)NC(=O)[C@@H]2CCCN2C(=O)[C@H](Cc2ccc(O)cc2)NC1=O) [Peptide No. 34]	Kd [1]: 370 nM; IC50 [2]: 2000 nM
					QRF[Pen]TGHFG[Sar]LYPCNGP-NH2 (disulfide 4-14; N-terminus assumed; SMILES CC(C)C[C@@H]1NC(=O)CN(C)C(=O)CNC(=O)[C@H](Cc2ccccc2)NC(=O)[C@H](Cc2c[nH]cn2)NC(=O)CNC(=O)[C@H]([C@@H](C)O)NC(=O)[C@@H](NC(=O)[C@H](Cc2ccccc2)NC(=O)[C@H](CCCNC(=N)N)NC(=O)[C@@H](N)CCC(N)=O)C(C)(C)SSC[C@@H](C(=O)N[C@@H](CC(N)=O)C(=O)NCC(=O)N2CCC[C@H]2C(N)=O)NC(=O)[C@@H]2CCCN2C(=O)[C@H](Cc2ccc(O)cc2)NC1=O) [Peptide No. 112]	IC50 [3]: 900 nM
190 nM	460 nM	4400 nM			RF[Pen]TG[His(Me)2]FGGLYPC-NH2 (disulfide 3-13) [Peptide No. 260]	
			> 50000 nM		RF[Pen]TGHF[dV][Sar][NMeL]YPC-NH2 (disulfide 3-13; N-terminus assumed; SMILES CC(C)C[C@H]1C(=O)N[C@@H](Cc2ccc(O)cc2)C(=O)N2CCC[C@H]2C(=O)N[C@H](C(N)=O)CSSC(C)(C)[C@H](NC(=O)[C@H](Cc2ccccc2)NC(=O)[C@@H](N)CCCNC(=N)N)C(=O)N[C@@H]([C@@H](C)O)C(=O)NCC(=O)N[C@@H](Cc2c[nH]cn2)C(=O)N[C@@H](Cc2ccccc2)C(=O)N[C@H](C(C)C)C(=O)N(C)CC(=O)N1C) [Peptide No. 218]	
			6400 nM	580 nM	RF[Pen]TGHF[dE][Sar][NMeL]YPC-NH2 (disulfide 3-13; N-terminus assumed; SMILES CC(C)C[C@H]1C(=O)N[C@@H](Cc2ccc(O)cc2)C(=O)N2CCC[C@H]2C(=O)N[C@H](C(N)=O)CSSC(C)(C)[C@H](NC(=O)[C@H](Cc2ccccc2)NC(=O)[C@@H](N)CCCNC(=N)N)C(=O)N[C@@H]([C@@H](C)O)C(=O)NCC(=O)N[C@@H](Cc2c[nH]cn2)C(=O)N[C@@H](Cc2ccccc2)C(=O)N[C@H](CCC(=O)O)C(=O)N(C)CC(=O)N1C) [Peptide No. 244]	
500 nM	500 nM	5500 nM			RF[Pen]TGRFG[Sar][NMeL]YPC-NH2 (disulfide 3-13; N-terminus assumed; SMILES CC(C)C[C@H]1C(=O)N[C@@H](Cc2ccc(O)cc2)C(=O)N2CCC[C@H]2C(=O)N[C@H](C(N)=O)CSSC(C)(C)[C@H](NC(=O)[C@H](Cc2ccccc2)NC(=O)[C@@H](N)CCCNC(=N)N)C(=O)N[C@@H]([C@@H](C)O)C(=O)NCC(=O)N[C@@H](CCCNC(=N)N)C(=O)N[C@@H](Cc2ccccc2)C(=O)NCC(=O)N(C)CC(=O)N1C) [Peptide No. 256]	
1300 nM	1100 nM	40000 nM			RF[Pen]TGKFG[Sar][NMeL]YPC-NH2 (disulfide 3-13; N-terminus assumed; SMILES CC(C)C[C@H]1C(=O)N[C@@H](Cc2ccc(O)cc2)C(=O)N2CCC[C@H]2C(=O)N[C@H](C(N)=O)CSSC(C)(C)[C@H](NC(=O)[C@H](Cc2ccccc2)NC(=O)[C@@H](N)CCCNC(=N)N)C(=O)N[C@@H]([C@@H](C)O)C(=O)NCC(=O)N[C@@H](CCCCN)C(=O)N[C@@H](Cc2ccccc2)C(=O)NCC(=O)N(C)CC(=O)N1C) [Peptide No. 255]	
	1100 nM	4600 nM			RF[Pen]TG[Phe(4-NH2)]FG[Sar][NMeL]YPC-NH2 (disulfide 3-13; N-terminus assumed; SMILES CC(C)C[C@H]1C(=O)N[C@@H](Cc2ccc(O)cc2)C(=O)N2CCC[C@H]2C(=O)N[C@H](C(N)=O)CSSC(C)(C)[C@H](NC(=O)[C@H](Cc2ccccc2)NC(=O)[C@@H](N)CCCNC(=N)N)C(=O)N[C@@H]([C@@H](C)O)C(=O)NCC(=O)N[C@@H](Cc2ccc(N)cc2)C(=O)N[C@@H](Cc2ccccc2)C(=O)NCC(=O)N(C)CC(=O)N1C) [Peptide No. 258]	
			4000 nM	470 nM	RF[Pen]TGHF[dL][Sar][NMeL]YPC-NH2 (disulfide 3-13; N-terminus assumed; SMILES CC(C)C[C@H]1NC(=O)[C@H](Cc2ccccc2)NC(=O)[C@H](Cc2c[nH]cn2)NC(=O)CNC(=O)[C@H]([C@@H](C)O)NC(=O)[C@@H](NC(=O)[C@H](Cc2ccccc2)NC(=O)[C@@H](N)CCCNC(=N)N)C(C)(C)SSC[C@@H](C(N)=O)NC(=O)[C@@H]2CCCN2C(=O)[C@H](Cc2ccc(O)cc2)NC(=O)[C@H](CC(C)C)N(C)C(=O)CN(C)C1=O) [Peptide No. 219]	
			29000 nM	2100 nM	RF[Pen]TGHF[dN][Sar][NMeL]YPC-NH2 (disulfide 3-13; N-terminus assumed; SMILES CC(C)C[C@H]1C(=O)N[C@@H](Cc2ccc(O)cc2)C(=O)N2CCC[C@H]2C(=O)N[C@H](C(N)=O)CSSC(C)(C)[C@H](NC(=O)[C@H](Cc2ccccc2)NC(=O)[C@@H](N)CCCNC(=N)N)C(=O)N[C@@H]([C@@H](C)O)C(=O)NCC(=O)N[C@@H](Cc2c[nH]cn2)C(=O)N[C@@H](Cc2ccccc2)C(=O)N[C@H](CC(N)=O)C(=O)N(C)CC(=O)N1C) [Peptide No. 243]	
			23000 nM	1100 nM	RF[Pen]TGHF[dS][Sar][NMeL]YPC-NH2 (disulfide 3-13; N-terminus assumed; SMILES CC(C)C[C@H]1C(=O)N[C@@H](Cc2ccc(O)cc2)C(=O)N2CCC[C@H]2C(=O)N[C@H](C(N)=O)CSSC(C)(C)[C@H](NC(=O)[C@H](Cc2ccccc2)NC(=O)[C@@H](N)CCCNC(=N)N)C(=O)N[C@@H]([C@@H](C)O)C(=O)NCC(=O)N[C@@H](Cc2c[nH]cn2)C(=O)N[C@@H](Cc2ccccc2)C(=O)N[C@H](CO)C(=O)N(C)CC(=O)N1C) [Peptide No. 241]	
74 nM	73 nM				RF[Pen]TG[Phe(4-amidino)]FG[Sar][NMeL]YPC-NH2 (disulfide 3-13; N-terminus assumed; SMILES CC(C)C[C@H]1C(=O)N[C@@H](Cc2ccc(O)cc2)C(=O)N2CCC[C@H]2C(=O)N[C@H](C(N)=O)CSSC(C)(C)[C@H](NC(=O)[C@H](Cc2ccccc2)NC(=O)[C@@H](N)CCCNC(=N)N)C(=O)N[C@@H]([C@@H](C)O)C(=O)NCC(=O)N[C@@H](Cc2ccc(C(=N)N)cc2)C(=O)N[C@@H](Cc2ccccc2)C(=O)NCC(=O)N(C)CC(=O)N1C) [Peptide No. 257]	
			71000 nM	4800 nM	RF[Pen]TGHF[dT][Sar][NMeL]YPC-NH2 (disulfide 3-13; N-terminus assumed; SMILES CC(C)C[C@H]1C(=O)N[C@@H](Cc2ccc(O)cc2)C(=O)N2CCC[C@H]2C(=O)N[C@H](C(N)=O)CSSC(C)(C)[C@H](NC(=O)[C@H](Cc2ccccc2)NC(=O)[C@@H](N)CCCNC(=N)N)C(=O)N[C@@H]([C@@H](C)O)C(=O)NCC(=O)N[C@@H](Cc2c[nH]cn2)C(=O)N[C@@H](Cc2ccccc2)C(=O)N[C@H]([C@H](C)O)C(=O)N(C)CC(=O)N1C) [Peptide No. 240]	
140 nM	380 nM	2900 nM			RF[Pen]TG[His(Me)]FGGLYPC-NH2 (disulfide 3-13) [Peptide No. 259]	
					QRF[hCys]TGHFGGLYP[hCys]NGP-NH2 (disulfide 4-14; N-terminus assumed; SMILES CC(C)C[C@@H]1NC(=O)CNC(=O)CNC(=O)[C@H](Cc2ccccc2)NC(=O)[C@H](Cc2c[nH]cn2)NC(=O)CNC(=O)[C@H]([C@@H](C)O)NC(=O)[C@@H](NC(=O)[C@H](Cc2ccccc2)NC(=O)[C@H](CCCNC(=N)N)NC(=O)[C@@H](N)CCC(N)=O)CCSSCC[C@@H](C(=O)N[C@@H](CC(N)=O)C(=O)NCC(=O)N2CCC[C@H]2C(N)=O)NC(=O)[C@@H]2CCCN2C(=O)[C@H](Cc2ccc(O)cc2)NC1=O) [Peptide No. 28]	Kd [1]: 3800 nM; IC50 [2]: 20000 nM
